Results as given in the nanobody polyreactivity screen of Harvey et al. (2022).

Assay: yeast display, Sf9 membrane polyspecificity reagent, FACS + sequencing; frameworks hold sequencing errors
In short: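 Genes from sorted yeast were amplified by colony PCR, read by MiSeq 2 × 250 sequencing and filtered on CDR length. These cells carried a synthetic nanobody library in Saccharomyces cerevisiae BJ5465 and were sorted by FACS into low and high (top ~1%) gates on anti-HA and streptavidin fluorescence. Polyreactivity is labelled according to the gate of origin.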

In the case of “QVQLVESGGGLVQAGGSLRLSCAASGLIFGDYVMGWYRQAPGKERELVAAISNNGDSTYYADSVKGRFTISRDNAKNTVYLQMNSLIPEDTAVYYCNADGDRGGYVLTEHDSWGQGTQVTVSS”, the “polyreactivity (PSR sort gate)” value is reported as “low polyreactivity”.

With “QVQLVESGGGLVQAGGSLRLSCAASGGIFLVYTMGWYRQAPGKEREMVAAITSGGSTKYADSVKGRFTISRDNAKNTVYFQMNSLKPEDTAVYYCAAGVQYARYQARYFYWGQGTPVTVSS” the “polyreactivity (PSR sort gate)” value was “high polyreactivity”.

With “QVQLVESGGGLVQAGGSLRLSCAASGRIFKRYAMGWYRQAPGKERELVAAISRGASTYYADSVKGRFTISRDNAKNTVYLQMNSLKPEDTAVYYCAAKGATPHYDYWGQGTQVTVSS” the “polyreactivity (PSR sort gate)” value was “high polyreactivity”.

For “QVQLVESGGGLVQAGGSLRLSWAASGIILQEYTMGWYRPAHWKERELVAAISVRGGSTYYADSVKGRFTISRDHAKNTVYLQMNSLKPEDTAVYYCAAAYYRRPPGFNYWGQGTEVTVSS”, the “polyreactivity (PSR sort gate)” value was “high polyreactivity”.

With “QVQLVESGGGLVQAGGSLRLSCAASGGTFGTNTMGWYRQAPGKERELVAAISRSGGSTYYADSVKGRFTISRDNAKNTVYLQMNCLKPEDTAVYYCNAVPRKYTDEFDYWGQGTQVTVSS” the “polyreactivity (PSR sort gate)” value was “high polyreactivity”.

In the case of “QVQLVESGGGLVQAGGSLRLSCAASGRTFTHYAMGWYRQAPGKERELVAVITTGGSTYYADSVKGRFTISRDNAKNTVYLQMNSLKPEDTAVYYCAATALSGLGYWGQGTQVTVSS”, the “polyreactivity (PSR sort gate)” value is reported as “low polyreactivity”.

In the case of “QVQHVESGGGLVQAGGSLRLSCAASGFTFAYYAKGWYRQAPGKERELVARISSGGSTYYADSVKGRFTISRDNAKNTVYLQMNSLKPEDTAVYYCAARSYYISPWRFDYWGQGTQVTVSS”, the “polyreactivity (PSR sort gate)” value is reported as “high polyreactivity”.

With “QVQLVESGGGLVQAGGSRRLSCAASGSISGYNAMGWYRQAPGKERELVAVITTDGSTNYADSVKGRFTISRDNAKNTVYLQMNSLKPEDTAVYYCADYVVWLYGYEYWGQGTQVTVSS” the “polyreactivity (PSR sort gate)” value was “low polyreactivity”.

With “QVQFEESGGGLVQAGGSLRLSCAASGSTFQGYAMGWYRQAPGKERELVAAISRSGGRTYYADSVKGRFTISRDNAKNTVYLQMNSLKPEDTAVYYCAAEGHELTEGDSWGQGTQVTVSS” the “polyreactivity (PSR sort gate)” value was “low polyreactivity”.

With “QVQLVESGGGLVQAGGSLRLSCAASGSTFTFNAMGWYRQAPGKERELVAAITSRGGSTYYADSVKGRFTISRDNAKNTVYLQMNSLKPEDTAVYYCAATLRGQKTRREYWGQGTQVTVSS” the “polyreactivity (PSR sort gate)” value was “high polyreactivity”.

With “QVHLVESGGGLVQAGGRLRLSCAASGNTFYQYAMGWYRQAPGKERELVAAISSSGGSTYYADTVKGRFTISRDNAKNTVYLQMNSLKPEDTGVYYCATDKWYGYYYWGQGTQVTVSS” the “polyreactivity (PSR sort gate)” value was “low polyreactivity”.

In the case of “QVQLVESGGGLVQAGGSLRLSCAASGRILGRNAMGWYRQAPGKERELVAAISSGGNTYYADSVKGRFTISRDNAKNTVYLQMNSLKPEDTAVYYCNTGTYKDWGQGTQVTVSS”, the “polyreactivity (PSR sort gate)” value is reported as “low polyreactivity”.

For “QVQLVESGGGLDQAGGSLRLICAASGSTFISNVMGWYRPAPGKERELVAAITRSSGRTYYADSVKGRFTISRDNAKNTVYLQMNSLKPEDTAVYYCAARPRGRGVDYWGQGTQVTVSS”, the “polyreactivity (PSR sort gate)” value was “high polyreactivity”.

For “QVQLVESGGGLVQAGGSLRLSCAASGIIFGRYAMGWYRQAPGKERELVAVISRSGGSTYYADSVKGRFTISRDYAKNSVYLQMNSLKPEDTAVYYCAARYTPTYNAGLDYWGQGSQVTVSS”, the “polyreactivity (PSR sort gate)” value was “high polyreactivity”.

With “QVQLVESGGGLVQAGGSLRLSCAASGNIFYVYAMGWYRQAPGKERELVAVISRNDGSTYYADSVKARFTISRDNAKNTVYLQMNSLKPEDTAVYYCNAEWYFWGQGTQVTVSS” the “polyreactivity (PSR sort gate)” value was “low polyreactivity”.

In the case of “QVQLVESGGGLVQAGGSLRLSCSASGSTFERYAMGWYRQAPGKERELVAAISAIGDSTYYADSVKGRFTISRDNANNTVYLQMNSLKPEDTAVYYCAAKTSDYGYYYWGQGTQVTVSS”, the “polyreactivity (PSR sort gate)” value is reported as “high polyreactivity”.

For “QVQLVESGGGLVQAGGSLRLSCAASGSTFVRYAMGWYRQAPGKERELVAAISSGGSRTYYADSVKGRFTISRDNAKNTVYLQMNSLKPEDTAVYYCATVSTYYHYRRYDYWGQGTQVTVSS”, the “polyreactivity (PSR sort gate)” value was “high polyreactivity”.

For “QVQLVESVGGLVQAGGSLRLSCAASGSIFTHNTMGWYRQAPGKERELVASIDSGASTNYADSVKGRFTISRDNAKNTVYLQMNSLKPEDTAVYYCAARDYDWGYPYYYWGQGTQVTVSS”, the “polyreactivity (PSR sort gate)” value was “low polyreactivity”.
